Assay results: a protein production outcome set (Wang et al. 2014)

Experiment: label from the status in PepcDB records

Sequence | protein production
MCFSFIMPPAMADILDIWAVDSQIASDGSIPVDFLLPTGIYIQLEVPREATISYIKQMLWKQVHNYPMFNLLMDIDSYMFACVNQTAVYEELEDETRRLCDVRPFLPVLKLVTRSCDPGEKLDSKIGVLIGKGLHEFDSLKDPEVNEFRRKMRKFSEEKILSLVGLSWMDWLKQTYPPEHEPSIPENLEDKLYGGKLIVAVHFENCQDVFSFQVSPNMNPIKVNELAIQKRLTIHGKEDEVSPYDYVLQVSGRVEYVFGDHPLIQFQYIRNCVMNRALPHFILVECCKIKKMYEQEMIAIEAAINRNSSNLPLPLPPKKTRIISHVWENNNPFQIVLVKGNKLNTEETVKVHVRAGLFHGTELLCKTIVSSEVSGKNDHIWNEPLEFDINICDLPRMARLCFAVYAVLDKVKTKKSTKTINPSKYQTIRKAGKVHYPVAWVNTMVFDFKGQLRTGDIILHSWSSFPDELEEMLNPMGTVQTNPYTENATALHVKFPENKKQPYYYPPFDKIIEKAAEIASSDSANVSSRGGKKFLPVLKEILDRDPLSQLCENEMDLIWTLRQDCREIFPQSLPKLLLSIKWNKLEDVAQLQALLQIWPKLPPREALELLDFNYPDQYVREYAVGCLRQMSDEELSQYLLQLVQVLKYEPFLDCALSRFLLERALGNRRIGQFLFWHLRSEVHIPAVSVQFGVILEAYCRGSVGHMKVLSKQVEALNKLKTLNSLIKLNAVKLNRAKGKEAMHTCLKQSAYREALSDLQSPLNPCVILSELYVEKCKYMDSKMKPLWLVYNNKVFGEDSVGVIFKNGDDLRQDMLTLQMLRLMDLLWKEAGLDLRMLPYGCLATGDRSGLIEVVSTSETIADIQLNSSNVAAAAAFNKDALLNWLKEYNSGDDLDRAIEEFTLSCAGYCVASYVLGIGDRHSDNIMVKKTGQLFHIDFGHILGNFKSKFGIKRERVPFILTYDFIHVIQQGKTGNTEKFGRFRQCCEDAYLILRRHGNLFITLFALMLTAGLPELTSVKDIQYLKDSLALGKSEEEALKQFKQKFDEALRESWTTKVNWMAHTVRKDYRS | failed
MTAAENIQEQLYPAPIKTVEEGSPAARAGVRPGDVLLRVNGQPVTDVLAYRHQLERGVVTLEVARPHEAPRVMTGVAGTAQDHHRLMLPQPPSLDETLTFTVEWEDPGLDFEEVLFDGIKKCANKCDFCYVHQMPRGFRKSLYIMDDDYRLSFLYGSFVTLTNLTEGDINRILDENLSPLYVSVHTANQDLRQDMMKWWKLKVKDPQAVQIREMIERLESIDLYTQIVLVPERNDRENLDETVEYLSSRPNVISAAVVPIGLTAHRTNLPDVRTFTPEEAQDTLRRLNVWRRKFLAERGTRFIFPSDELYLLAGEPLPTEEEYEGFPMLENGVGMIRDFLTEALPPLPAALPEPRKVILGTGLLFADSLARAIEPLRQIEGLDIEVRAIENKTFGKVTTVAGLLTGRCFRHAVQPGEADLLIVPPTTLRYGTELMIDDTSLGELRRELKMDVRAGGATLGELARVVLEGAQSSGHQFGMSAHAVKDSGRDDVAPSASRAQGGAAPEESLEEDVAESGMHGRGQA | failed
MIFRTFIVVLCLIPCFSYGSEAYLNAAEKQFESLLELLPEDEKREWKHRDFEEVMDYSNKLDELKKTAEYIRNQSDSSDVDGILAFSFLADAIQYELDLKTSLVNDLGLHLYRSYEINNVNPVRKAIEAELVALQNASGALQLQSKLTKYFKLQREIAELSKNPPTKMTLEYRPQDNAWDSDPELVKKYVLFDWLSALSKLKEKLYELQKIKDSFASFNYLRLKDPIAFVSLGAQLAILLVAVAGYLISYTEKPSIKVVASLVAASMLLSVFLVFVSSSTIFNLIVQASIPSLFIAYWVYRNSHNKKVQPTADGRG | failed
MYKKNLMKLLPAVAVIIAIAAAGFQQDSEVKSTKTVQAAENELIKSDELTSLLTTAYFNDGGMKDTDEADSSILKTKKSKSKIKKAGITTGKTKALPEKSAAASGQGQGTTTTPTTSVPKGGYKDGIYQGSGTGFGGTITVQVTISGGKIASIEILSAAGETGSYFASAKGVISKMISGQTPNVDAVSGATYSSNGIIQAVQNALSKAGKGKAAKTTKKTTKKNTNTSNKTTIPVEITKPSGEVTYKDGMYTAEAEGFDGPIKVTVTIKDGKITAITNTNTDTKEYFNKAWNSIQPKILEKQAVYGVDTVIGATFSSNGILKAVQKALEQASVNVTPAPEVTVSPTPVPTTAPAPVIPDTPKVLYNDGTYTGTGIGYGGKINISVTIKDGIITEVSQTNEGETPRYFRNAWNVIQPAIIAKQSTDGIDTVSGATYSSEGILYGAKSALEQALKTSDITATPTPNPTATPEPTAAPEPTAAPEPTAAPEPTAAPEPTATPEPTATPEPTATPEPTTAPGAGYKDGSYTGTGEGFNGQVTVTINVSGGNIVSAGYDGEDDEPEFSNAWNGIYNQIMGKQSADGIDTVTDATYSSNGLIQAFQSAISQAK | failed
